Assay results reported in article PMC9842639, “Insights into pyrrolysine function from structures of a trimethylamine methyltransferase and its corrinoid protein complex” (Communications Biology, 2023).
Changes are numbered by the printed parent chain. Numbers in names are those of the source.

B1: Methanosarcina barkeri trimethylamine corrinoid protein MttC (natural protein, UniProt O93659 1-217, looked up)
chain: MANKEEIIAKAKEAITDFDDELAEEVANEALAAGIDPVELIEKGFTAGMEEVGEKFGQGELFLPHVLAAAEAMNSGIKVITPEMEKRKSQTKSLGTVAIGTIEGDIHSIGKDIVASMLNIAGFKVVDLGRDVPINTFVEKVKELKPQVVASSALMTTTMVNQIQIEEQLKEAGVRDQVKTMVGGAPVTQDWADKIGADIYGESANDAVAKVKAALNV
notes: Trimethylamine corrinoid protein MttC of M. barkeri; mttC gene cloned by a strategy similar to that for mttB1; helical cap domain residues 2-84, connecting loop 85-95, core domain 96-216; No step that removes the tag is described; also called MttC-His6; cognate corrinoid protein; source: Methanosarcina acetivorans C2A transformed with plasmid pTC311, purified (HiTrap HP column, Mono-Q HR 10/10)
B2: MttB (Methanosarcina barkeri; C-TERMINAL/CHANGE/GGHHHHHH/IS/NO/TAG) (protein)
chain: MAKNNAVAGFNALNGVELNLFTTDELKAIHYATMEVLMDPGIQVSDPEARQIFKENGCEVNEKTNVVKIPEYLVRKALQLAPSRFVLWGRDKKFNTVQECGGKVHWTCFGTGVKVCKYQDGKYVTVDSVEKDIADIAKLCDWAENIDYFSLPVSARDIAGQGAQDVHETLTPLANTAKHFHHIDPVGENVEYYRDIVKAYYGGDEEEARKKPIFSMLLCPTSPLELSVNACQVIIKGARFGIPVNVLSMAMSGGSSPVYLAGTLVTHNAEVLSGIVLAQLTVPGAKVWYGSSTTTFDLKKGTAPVGSPELGLISAAVAKLAQFYGLPSYVAGSOSDAKVPDDQAGHEKTMTTLLPALAGANTIYGAGMLELGMTFSMEQLVIDNDIFSMVKKAMQGIPVSEETLAVESIQKVGIGNNFLALKQTRQLVDYPSNPMLLDRHMFGDWAAAGSKDLATVAHEKVEDVLKNHQVTPIDADIFKDMQAIVDKADKAFRGM
notes: full length with C-terminal GGHHHHHH tag, contains pyrrolysine at 334 (amber codon); expressed in Methanosarcina acetivorans C2A; D3 homohexamer (trimer of dimers)
B3: Methanosarcina barkeri trimethylamine methyltransferase MttB (enzyme, Methanosarcina barkeri MS, UniProt O93658 1-495, looked up)
chain: B2 chain
modifications: pyrrolysine at 334 (Pyl334)
notes: Trimethylamine methyltransferase MttB, product of the mttB1 gene amplified from M. barkeri MS genomic DNA; the in-frame amber codon is read as pyrrolysine (Pyl334); residues 2-495 are described in the structure; D3-symmetric homo-hexamer (trimer of dimers) in the crystals; No step that removes the tag is described; The PDB ids are printed in two ways (7XCL/7XCM in the methods, 7LCL/7LCM in the …)
B4: MttB (Methanosarcina barkeri; Y364F) (protein)
chain: B2 chain with Y364F
notes: as for B2

Key:
MttB = target: T1, MttB (Methanosarcina barkeri, UniProt O93658); assay: X-ray crystal structure, […] Å; assay type: binding; details: covalent; adduct on imine carbon of Pyl334; crystal soaked with saturated sodium dithionite, pH 4.5
T1 construct: full length with C-terminal GGHHHHHH tag, contains pyrrolysine at 334 (amber codon); expressed in Methanosarcina acetivorans C2A; D3 homohexamer (trimer of dimers)

[1] = target: B3; assay: crystal structure; MttB-MttC complex; hanging drops at 10 °C of MttB (3 mg/mL) and MttC (10 mg/mL) mixed with 18% PEG8000, 0.1 M citric acid pH 5, 1 M LiCl; crystals soaked with 12.5 mM N,N-dimethyl-hydroxylamine; 2.7 Å, space group P21; details: both partners purified
purified protein = substrate: CN(C)C; assay: purified protein; assay type: biochemical, Methanosarcina barkeri; details: 30 µM Co(I)-MttC as methyl acceptor, RamA, 2 mM Ti(III)-citrate, 2.5 mM ATP, 2.5 mM MgCl2, phosphate pH 7.2, 37 °C, anaerobic
[2] = target: the molecule itself; assay: crystal structure; MttB alone; vapor diffusion at 10 °C; 8 mg/mL MttB in 20 mM potassium phosphate pH 7.4, 500 mM NaCl, 240 mM imidazole, 20% glycerol; reservoir 4% MPD, 0.1 M citric acid pH 4.5; 2.5 Å

| Molecule | Km (purified protein) | kcat (purified protein) | also measured |
| --- | --- | --- | --- |
| O=S(O)O [sulfite] |  |  | X-ray crystal structure, 3.2 Å (MttB): addition of sulfite to the pyrrolysine imine carbon of MttB was observed |
| B1 |  |  | binding result [1]: binds |
| B2 | 49 ± 6 µM | 48 ± 2 turnovers per min |  |
| B3 |  |  | stoichiometry N [2]: 6 |
| B4 | 75 ± 11 µM | 1.7 ± 0.1 turnovers per min |  |
